Experimental data taken from the supplement of paper PMC10567573.

B1: ZNF449 (parent)
chain: EPHKCPECGKRFLRSSDLYRHQRL

Variants of: B1
Test: protein stability index of a GFP-peptide fusion (GPS, HEK-293T) (PSI 1-6); higher = more stable
Settings: c terminus: a fixed tail appended
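Note: lentivirally expressed fusions sorted by FACS into six bins by GFP to DsRed ratio, PSI derived from sequencing read proportions per bin multiplied by bin number.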

In order of rising protein stability index:
1. EPHKCPECGKRFLRSSDLYRWQRL  1.29
2. EPHKCPECGKRFLRSSDLYRAQRL  1.62
3. EPHKCPECGKRFLRSSFLYRHQRL  1.68
4. EPHKCPECGKRFLRSSDLYRGQRL  1.84
5. EPHKCPECGKRALRSSDLYRHQRL  1.86
6. EPHKCPECGKRFLRSSDLYRQQRL  1.91
7. EPHKCPECGKRWLRSSDLYRHQRL  1.93
8. EPHKCPECGKRFLRSSDLYRMQRL  2
9. EPHKCPECGKRFLRSSILYRHQRL  2.04
10. EPHKCPECGKRNLRSSDLYRHQRL  2.06
11. EPHKCPECGKRFLRSFDLYRHQRL  2.09
12. EPHKCPECGKRFLRSSDLYRNQRL  2.12
13. EPHKCPECWKRFLRSSDLYRHQRL  2.12
14. EPHKCPECGKRGLRSSDLYRHQRL  2.12
15. EPHKCPECGKRDLRSSDLYRHQRL  2.13
16. CPHKCPECGKRFLRSSDLYRHQRL  2.14
17. EPHKCPECGKRRLRSSDLYRHQRL  2.15
18. EPHKCPPCGKRFLRSSDLYRHQRL  2.21
19. EPHKCPECAKRFLRSSDLYRHQRL  2.24
20. EPHKCPECGKRFLRSSKLYRHQRL  2.33
21. EPHKCPECGPRFLRSSDLYRHQRL  2.33
22. EPHKCPECGKRFLRSSPLYRHQRL  2.38
23. EPHKCPECGKRMLRSSDLYRHQRL  2.45
24. EPHKCPECGKRFLRSSDTYRHQRL  2.48
25. EPHKCPECGCRFLRSSDLYRHQRL  2.48
26. EPHKCPECGKRPLRSSDLYRHQRL  2.51
27. EPHKCPECGNRFLRSSDLYRHQRL  2.52
28. EPHKCPECVKRFLRSSDLYRHQRL  2.54
29. EPHKCPECGKRLLRSSDLYRHQRL  2.54
30. IPHKCPECGKRFLRSSDLYRHQRL  2.6
31. TPHKCPECGKRFLRSSDLYRHQRL  2.6
32. EPHKCPECGKRFLRSSSLYRHQRL  2.61
33. EPHKCPECKKRFLRSSDLYRHQRL  2.61
34. EPHKCPECGKRFLRSSDLPRHQRL  2.62
35. EPHKGPECGKRFLRSSDLYRHQRL  2.63
36. EPHKCPEWGKRFLRSSDLYRHQRL  2.64
37. EPHKCPECIKRFLRSSDLYRHQRL  2.65
38. EPHKCPECGKRFLRSSDLYRKQRL  2.67
39. EPHKCPEFGKRFLRSSDLYRHQRL  2.72
40. EPHKCPECGKRYLRSSDLYRHQRL  2.72
41. SPHKCPECGKRFLRSSDLYRHQRL  2.73
42. EPHKCPECGKRFLRSSDLYRDQRL  2.79
43. LPHKCPECGKRFLRSSDLYRHQRL  2.81
44. APHKCPECGKRFLRSSDLYRHQRL  2.84
45. EPHKCPECGKRFLRSSHLYRHQRL  2.87
46. EPHKVPECGKRFLRSSDLYRHQRL  2.87
47. EPHKCPECGKRFLRSSDDYRHQRL  2.87
48. EPHKCPECGKRFLRSSDLYPHQRL  2.88
49. EPHKCPECGKRKLRSSDLYRHQRL  2.88
50. EPHKCPECGKRFLRSSDLGRHQRL  2.92
51. EPHKCPECGKRFLRSSDEYRHQRL  2.92
52. EPHKCPECGKRFLRSSDLYRHQWL  2.94
53. EPSKCPECGKRFLRSSDLYRHQRL  2.97
54. EPHKCPECGKRFLRSSDLYRHQPL  2.98
55. EPHKCPECGKRFLRSSDLYRHQRW  3.01
56. EPHKCPELGKRFLRSSDLYRHQRL  3.01
57. EVHKCPECGKRFLRSSDLYRHQRL  3.02
58. EPHKCPECGKRFLRSSDLYRHARL  3.04
59. EPHKMPECGKRFLRSSDLYRHQRL  3.06
60. EPHKPPECGKRFLRSSDLYRHQRL  3.07
61. EPHKCPERGKRFLRSSDLYRHQRL  3.08
62. EPHKCPECHKRFLRSSDLYRHQRL  3.08
63. EPHKCRECGKRFLRSSDLYRHQRL  3.1
64. EPHKCPECGKRFLRSSDVYRHQRL  3.12
65. GPHKCPECGKRFLRSSDLYRHQRL  3.13
66. EPHKRPECGKRFLRSSDLYRHQRL  3.14
67. EPHKCPENGKRFLRSSDLYRHQRL  3.16
68. EPHKCPECQKRFLRSSDLYRHQRL  3.16
69. EPHKCPRCGKRFLRSSDLYRHQRL  3.17
70. EPHKCPECGKRFLVSSDLYRHQRL  3.2
71. EYHKCPECGKRFLRSSDLYRHQRL  3.21
72. EPHKCFECGKRFLRSSDLYRHQRL  3.22
73. EPHKCPECGKRFLRSSDLYRHQRF  3.23
74. EPKKCPECGKRFLRSSDLYRHQRL  3.23
75. EPDKCPECGKRFLRSSDLYRHQRL  3.23
76. EPHKCPEYGKRFLRSSDLYRHQRL  3.24
77. EPHKCPEHGKRFLRSSDLYRHQRL  3.26
78. EPHKCPECGKRFLRSSDLYRHKRL  3.28
79. EPRKCPECGKRFLRSSDLYRHQRL  3.29
80. EPHKCPACGKRFLRSSDLYRHQRL  3.29
81. YPHKCPECGKRFLRSSDLYRHQRL  3.3
82. EPHKLPECGKRFLRSSDLYRHQRL  3.3
83. EPHKCPECGKRFLRSSDLYRHTRL  3.3
84. EPQKCPECGKRFLRSSDLYRHQRL  3.31
85. EPHKCPECGIRFLRSSDLYRHQRL  3.32
86. EPHKCPECGKRFLRSSDWYRHQRL  3.37
87. EMHKCPECGKRFLRSSDLYRHQRL  3.38
88. EPHKCPECGKRFLRSSDLNRHQRL  3.4
89. EPHKCPECGKRFLRSSDLYFHQRL  3.42
90. EPHKCPECGKRFLRCSDLYRHQRL  3.42
91. EPHPCPECGKRFLRSSDLYRHQRL  3.42
92. EPHKCPEQGKRFLRSSDLYRHQRL  3.43
93. EPHKCPECGKRFLRSSDLYRHQFL  3.43
94. EPHKCPVCGKRFLRSSDLYRHQRL  3.44
95. EPHKCPECGKRFIRSSDLYRHQRL  3.5
96. EAHKCPECGKRFLRSSDLYRHQRL  3.5
97. EPHKCPECGTRFLRSSDLYRHQRL  3.5
98. ETHKCPECGKRFLRSSDLYRHQRL  3.52
99. EQHKCPECGKRFLRSSDLYRHQRL  3.53
100. EPHKCPECGKRFLRGSDLYRHQRL  3.53
101. EPHKCYECGKRFLRSSDLYRHQRL  3.53
102. ERHKCPECGKRFLRSSDLYRHQRL  3.54
103. EPHKCPECGKRFLRSSDLYRHQGL  3.54
104. EPHKCPECGKRFLRSHDLYRHQRL  3.55
105. EPHKCPECGKRFLRSSDLYIHQRL  3.56
106. EPCKCPECGKRFLRSSDLYRHQRL  3.58
107. ECHKCPECGKRFLRSSDLYRHQRL  3.58
108. EPHKCPECGKRFLRVSDLYRHQRL  3.58
109. EPHKCPECGKRFLRSSDLTRHQRL  3.6
110. EPHKQPECGKRFLRSSDLYRHQRL  3.6
111. EPHKCPECGKRFLMSSDLYRHQRL  3.61
112. EPHKCKECGKRFLRSSDLYRHQRL  3.62
113. EPHKCPECGKRFLRSSDLYRHQRI  3.63
114. ELHKCPECGKRFLRSSDLYRHQRL  3.63
115. EPHKCPMCGKRFLRSSDLYRHQRL  3.65
116. EPHKCPYCGKRFLRSSDLYRHQRL  3.66
117. EPHKCPECGKRFLRSSDLSRHQRL  3.68
118. EPHKCPECGKRFLRSSDCYRHQRL  3.68
119. EPHKDPECGKRFLRSSDLYRHQRL  3.69
120. EPHKCSECGKRFLRSSDLYRHQRL  3.69
121. EPHKCPECGKRFLRSNDLYRHQRL  3.7
122. EPHRCPECGKRFLRSSDLYRHQRL  3.71
123. EPVKCPECGKRFLRSSDLYRHQRL  3.72
124. EPHKCPECGKRFLRSSDLYRHQAL  3.74
125. EPHKCPECGKRFLRSVDLYRHQRL  3.81
126. EPHKCPNCGKRFLRSSDLYRHQRL  3.81
127. EPHKCPECGKRFLRSADLYRHQRL  3.82
128. EPHKCPECGKRFLRSSELYRHQRL  3.82
129. EPHKCPTCGKRFLRSSDLYRHQRL  3.82
130. EPHKCPECGKRFLRSSDLYRHQRR  3.84
131. EPHKCPECGKRFLRSSDLQRHQRL  3.84
132. EPHKCPECGKRFLRSSDLYRHQRP  3.85
133. EPHKCPECGKRFLRLSDLYRHQRL  3.86
134. EPHCCPECGKRFLRSSDLYRHQRL  3.86
135. EPHKCPECGKRFLRSSDLIRHQRL  3.86
136. EPHKCPECGKRFLRSSDLVRHQRL  3.89
137. EPHKCPECGKRFLRSSDLKRHQRL  3.92
138. EPHKCPECGKRFLRSSDLYRHLRL  3.93
139. EPHKCPECGKRFLRSTDLYRHQRL  3.94
140. EPHKCPECGKRFLRSSDLYRHQRM  3.94
141. EPHKCPECGKRFLRSSDLFRHQRL  3.96
142. EPHKCPECGKRFLRMSDLYRHQRL  3.98
143. EPHKCPECGMRFLRSSDLYRHQRL  3.99
144. EPHKCPECGKRFLRSSDLYRHQRK  4
145. EPHKCPEEGKRFLRSSDLYRHQRL  4.02
146. EPHKCPWCGKRFLRSSDLYRHQRL  4.05
147. EPHKCPECGKRFLRSDDLYRHQRL  4.06
148. DPHKCPECGKRFLRSSDLYRHQRL  4.06
149. EPHKCPECGQRFLRSSDLYRHQRL  4.08
150. EPFKCPECGKRFLRSSDLYRHQRL  4.09
151. EPHKCPECGKRFLKSSDLYRHQRL  4.11
152. EPHKCPECGKRFLRQSDLYRHQRL  4.11
153. EPHKCPSCGKRFLRSSDLYRHQRL  4.11
154. EPHKCPECGKRFLRSSDLYRHQSL  4.11
155. EPHKCPECGKRFLRSSDLYHHQRL  4.14
156. EPHKCPKCGKRFLRSSDLYRHQRL  4.14
157. EPHKCEECGKRFLRSSDLYRHQRL  4.19
158. EPHKCPECGKRFLRSSDLYSHQRL  4.2
159. EPHKCPECGKNFLRSSDLYRHQRL  4.24
160. EPHKCPECGKWFLRSSDLYRHQRL  4.26
161. EPHKCPECGKMFLRSSDLYRHQRL  4.26
162. EPHKCPECGKRFLRSQDLYRHQRL  4.27
163. EPHKCPECGKRFLRSSDLYRHQKL  4.27
164. EPHKCPECGKRFLDSSDLYRHQRL  4.29
165. EPHKCPECGKRFLRSSDLYRHQRN  4.29
166. EPHKCPECGKRFLRSSDLYQHQRL  4.29
167. EPHKCPECGKCFLRSSDLYRHQRL  4.31
168. EPHKCPECGKRFVRSSDLYRHQRL  4.32
169. EPHKCPECGKRFLRSSDLYRHQRS  4.4
170. EPHKCPECGKRFLRSSDLYKHQRL  4.43
171. EPHKCPECGKRFTRSSDLYRHQRL  4.46
172. EPHTCPECGKRFLRSSDLYRHQRL  4.46
173. EPHKCDECGKRFLRSSDLYRHQRL  4.46
174. EPHKCPECGKRFMRSSDLYRHQRL  4.48
175. EPHLCPECGKRFLRSSDLYRHQRL  4.49
176. EPHKCPECGKRFLRSSDLYDHQRL  4.5
177. EPHACPECGKRFLRSSDLYRHQRL  4.5
178. EPHKCPECGKIFLRSSDLYRHQRL  4.63
179. EPHKCPECGKRFLRSSDLYAHQRL  4.66
180. EPHKCPECGKRFLRSSDLDRHQRL  4.68
181. EPHKCPECGKRFERSSDLYRHQRL  4.78
182. EPHKCPECGKRFDRSSDLYRHQRL  4.82
183. EPLKCPECGKRFLRSSDLYRHQRL  4.89
184. EPHKCPECGKRFLRSSDLYRHQRC  4.97
185. EPHKCPECGKRFLRSSDLYRHQRD  4.98
186. EPHKCPECGKTFLRSSDLYRHQRL  5.01
187. EPHKCPECGKRFLRSSDLYRHQCL  5.02
188. EPHKCPECGKSFLRSSDLYRHQRL  5.13
